Literature values, collected in patent US7718413B2, “Glycosylation variants of BACE” (Elan Pharmaceuticals, Inc., priority 2003, dated 2010).
Non-standard residues stand in square brackets, D forms with d. No end group written: not given here. Sta = CC(C)C[C@H](N)[C@@H](O)CC(=O)O

Molecular target: β-secretase (Homo sapiens, UniProt P56817)
Conditions: previous studies

Chain of β-secretase (P56817 46-501): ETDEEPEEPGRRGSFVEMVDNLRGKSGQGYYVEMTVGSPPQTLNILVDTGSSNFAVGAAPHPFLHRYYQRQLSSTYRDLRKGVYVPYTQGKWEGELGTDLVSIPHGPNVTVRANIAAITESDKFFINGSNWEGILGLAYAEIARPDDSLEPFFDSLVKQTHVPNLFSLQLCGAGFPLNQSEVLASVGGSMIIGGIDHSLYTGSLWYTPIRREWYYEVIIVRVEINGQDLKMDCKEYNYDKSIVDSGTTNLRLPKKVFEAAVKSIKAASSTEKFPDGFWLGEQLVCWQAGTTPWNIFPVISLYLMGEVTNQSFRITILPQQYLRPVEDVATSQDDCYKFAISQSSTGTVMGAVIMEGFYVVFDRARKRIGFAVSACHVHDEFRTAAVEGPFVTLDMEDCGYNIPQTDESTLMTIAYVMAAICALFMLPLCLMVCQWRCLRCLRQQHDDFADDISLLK

In the case of “KTEEISEVN[sta]VAEF (KTEEISEVN[Sta]VAEF) [P10-P4′staD→V]”, the “inhibitor of the enzyme (potency in words)” value is given as “reasonably potent inhibitor”.
